No end group written: not given here.
Assays:
[1] = target: T1, human MUC5AC mucin purified from pieces of human tumor (human, UniProt P98088 28-5654, limits assumed, O-glycosylated mucin); assay: ELISA; purified human MUC5AC immobilized, biotinylated peptide at increasing concentrations, OD 405 nm; apparent Kd
T1 construct: Native glycoprotein purified from tissue and immobilized on an ELISA plate at 12.5 ug/ml; Also used here as the target for labelling of human tissue sections (MUC5AC in situ); also called human colonic MUC5AC; purified MUC5AC
Method: (§1) The interaction between the peptide and MUC5AC is evaluated by means of an ELISA assay. The mucin MUC5AC (purified from pieces of human tumor on the basis of mucin extraction and purification protocols described in literature) is immobilized on a plate at the concentration of 12.5 μg/ml overnight at 4° C. The nonspecific sites are then saturated in a buffer enriched with milk, for 2 hours at 4° C. After several rinses, the peptide […] coupled to biotin is incubated at increasing concentrations (10⁻³M and 10⁻⁶M) for 2 hours at 37° C. The biotinylated peptides bound to MUC5AC are visualized using goat anti-biotin antibodies incubated for one hour at ambient temperature and then diluted in PBS at 1 μg/ml. After removal of the unbound antibodies, a second incubation for one hour at ambient temperature is carried out in the presence of peroxidase-labeled anti-goat antibodies at 0.2 μg/ml, diluted in PBS supplemented with 0.1% of Tween-20. The peroxidase coloration reaction is carried out in the presence of H₂O₂-enriched ABTS. The measurement of the OD at 405 nm makes it possible to calculate the K*d MUC5AC value.

[2] = target: T2, rat MUC5AC glycoprotein purified from rat stomach (rat); assay: ELISA; MUC5AC purified from rat stomach immobilized, biotinylated peptide; apparent Kd
T2 construct: Native glycoprotein purified from tissue; also called murine (rat) gastric MUC5AC
Method: as §1
(§2) The interaction between the peptide and MUC5AC is also evaluated by means of the previously described ELISA assay on the mucin MUC5AC purified beforehand from mouse and rat stomach.

[3] = target: T3, mouse MUC5AC glycoprotein purified from mouse stomach (mouse); assay: ELISA; MUC5AC purified from mouse stomach immobilized, biotinylated peptide; apparent Kd
T3 construct: Native glycoprotein purified from tissue; Also used here as the target for the in vivo mouse stomach signal (MUC5AC in situ); also called murine (mouse) gastric MUC5AC
Method: as §1, §2

[4] = target: T4, native MUC5AC secreted by HT29-5M21 human colonic adenocarcinoma cells (human, UniProt P98088 28-5654, O-glycosylated mucin); assay: cell ELISA on HT29 5M21 cells secreting MUC5AC, biotinylated peptide, OD 405 nm; apparent Kd
T4 construct: whole, on cells; A secreted mucin on the cell layer, not a membrane protein; also called MUC5AC cells; MUC5AC directly after secretion on secretory human adenocarcinoma cells
Method: The affinity of the peptide for MUC5AC is calculated from a functional cell assay which consists in measuring the binding of the peptide on a cell model secreting MUC5AC. After 21 days of culture for HT29-5M21 cells and 7 days for HCT116 cells, the cells are rinsed with PBS at 4° C., and then fixed with 1% glutaraldehyde diluted in PBS. The cells are then rinsed again 3 times with PBS at 4° C. and incubated for 2H at ambient temperature with a milk-enriched buffer and for 2H at 37° C. in a concentration range of between 10⁻³M and 10⁻⁶M of biotinylated peptides. The biotinylated peptides bound to the target are visualized using goat anti-biotin antibodies incubated for one hour at ambient temperature (diluted in PBS to 1 μg/ml). A second incubation for one hour at ambient temperature is carried out in the presence of peroxidase-labeled anti-goat antibodies at 0.2 μg/ml, diluted in PBS supplemented with 0.1% of Tween-20. The peroxidase coloration reaction is carried out in the presence of ABTS and the OD measurement is carried out at 405 nm. The cell assay has the advantage of showing affinity data, although its sensitivity can still be improved. The secretion of MUC5AC was indeed verified in the study. The results on human tissues (affinity curve for human MUC5AC also obtained) give very positive results. […]

MUC2 glycoprotein = target: T5, MUC2 glycoprotein (human, UniProt Q02817 21-5289, limits assumed, O-glycosylated mucin); assay: histological labelling of human colonic adenoma sections with biotinylated peptide, compared with anti-MUC2 antibody labelling
T5 construct: Present in situ in fixed, paraffin-embedded tissue sections; also called major mucin of the intestine
Method: Sections of healthy gastric and colonic mucosae and of human colorectal adenoma (5 μm thick) were fixed for 24 h with 4% paraformaldehyde and embedded in paraffin. For the labeling, the sections were first of all deparaffinized in toluene and rehydrateted in 95% alcohol. After rinsing in water, the slides are brought to boiling for 10 minutes in a citrate buffer (50 mM, pH 4). Once the temperature of the buffer has returned to 25-30° C., the slides are then rinsed with PBS and then successively incubated for 15 minutes in a 0.15% hydrogen peroxide (H₂O₂) solution and a kit for blocking the endogenous biotin for 1 h. The sections are then blocked using a milk-enriched buffer for 1 h at ambient temperature, and are then incubated at 4° C. for 18 h with the peptides at various concentrations (20 μM, 10 μM, 1 μM, 0.2 μM, 0.04 μM) or the antibodies (MUC5AC: PM8 at a 1/100 dilution and MUC2: Lum2-3 at a 1/100 dilution) diluted in PBS. The biotinylated peptides bound to the target are visualized using goat anti-biotin antibodies incubated for one hour at ambient temperature and then diluted in PBS at 1 μg/ml. A second incubation for one hour at ambient temperature is carried out in the presence of peroxidase-labeled anti-goat antibodies at 0.2 μg/ml diluted in PBS supplemented with 0.1% of Tween-20. […]

B1: peptide CPSIYPLLC (SEQ ID No. 2) coupled to biotin (peptide)
peptide: CPSIYPLLC
modifications: also: biotin coupled, site not given here, cyclic, closure type not given here
notes: The chemistry of the biotin coupling is not described; also called Cyclic C60
- Kd [1]: 85 µM
- Kd [2]: 659 µM
- Kd [3]: 549 µM
- Kd [4]: 48 µM
- binding result (MUC2 glycoprotein): no binding

Source: patent publication US20140127139A1 (GUERBET, published 2014)
